# Results taken from publication PMC3125984 (Journal of molecular biology, 2011).
# Read-outs that look alike come from different tables or passages of the source.
# T1: Mss116 core (Ser73-Tyr597) (Saccharomyces cerevisiae, UniProt P15424 73-597)
# T1 sequence: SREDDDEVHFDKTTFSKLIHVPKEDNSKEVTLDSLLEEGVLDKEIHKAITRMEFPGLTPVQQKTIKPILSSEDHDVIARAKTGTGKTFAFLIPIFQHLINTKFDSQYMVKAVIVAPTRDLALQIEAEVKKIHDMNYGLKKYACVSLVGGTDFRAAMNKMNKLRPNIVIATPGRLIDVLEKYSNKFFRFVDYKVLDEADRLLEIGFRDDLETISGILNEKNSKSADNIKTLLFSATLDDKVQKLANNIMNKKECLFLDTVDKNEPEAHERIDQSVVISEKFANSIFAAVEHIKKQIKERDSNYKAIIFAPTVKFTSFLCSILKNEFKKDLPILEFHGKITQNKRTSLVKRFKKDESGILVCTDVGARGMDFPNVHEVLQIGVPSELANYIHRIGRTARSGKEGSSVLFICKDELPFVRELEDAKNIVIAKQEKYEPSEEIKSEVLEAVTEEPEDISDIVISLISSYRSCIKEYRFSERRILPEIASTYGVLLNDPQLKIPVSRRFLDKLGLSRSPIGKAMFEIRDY
# Assays:
# [1] = target: the molecule itself; test: fluorescence correlation spectroscopy
# [2] = target: T1, Mss116 core (Ser73-Tyr597); test: FCS
# [3] = target: T1, Mss116 core (Ser73-Tyr597); test: FCS; remark: listed apart in the source
binder,measurement,setting,value
"Mss116 (truncated construct, Ser73 - Tyr597) (domain or fragment, Saccharomyces cerevisiae, UniProt P15424 73-597, looked up) SREDDDEVHFDKTTFSKLIHVPKEDNSKEVTLDSLLEEGVLDKEIHKAITRMEFPGLTPVQQKTIKPILSSEDHDVIARAKTGTGKTFAFLIPIFQHLINTKFDSQYMVKAVIVAPTRDLALQIEAEVKKIHDMNYGLKKYACVSLVGGTDFRAAMNKMNKLRPNIVIATPGRLIDVLEKYSNKFFRFVDYKVLDEADRLLEIGFRDDLETISGILNEKNSKSADNIKTLLFSATLDDKVQKLANNIMNKKECLFLDTVDKNEPEAHERIDQSVVISEKFANSIFAAVEHIKKQIKERDSNYKAIIFAPTVKFTSFLCSILKNEFKKDLPILEFHGKITQNKRTSLVKRFKKDESGILVCTDVGARGMDFPNVHEVLQIGVPSELANYIHRIGRTARSGKEGSSVLFICKDELPFVRELEDAKNIVIAKQEKYEPSEEIKSEVLEAVTEEPEDISDIVISLISSYRSCIKEYRFSERRILPEIASTYGVLLNDPQLKIPVSRRFLDKLGLSRSPIGKAMFEIRDY",binding result,[1],binds
GCCUCGCUGCCCUUCGGGGCAGCGAGGC (structured_RNA) [28-mer hairpin RNA],Kd,[2],117 ± 21 nM
same,Kd,[3],122 ± 22 nM
